Data taken from US20230374148A1, “BINDING MOLECULES THAT MULTIMERISE CD45” (UCB BIOPHARMA SRL, priority 2020, published 2023).

Experiments:
[1] = target: T1, CD45 domains 1-4 of the extracellular domain (UniProtKB P08575, residues 225-573) with C-terminal TEV cleavage site and 10-His tag (human); experiment: mass photometry of the mixture of CD45 ECD and 4133-6294 BYbe, not pre-incubated [C]
[2] = target: T2, human CD45 on cells (PBMC, whole blood cells, macrophages, leukaemia and lymphoma cell lines) (human, UniProt P08575 26-1306); experiment: cell-based or functional assay
T2 sequence: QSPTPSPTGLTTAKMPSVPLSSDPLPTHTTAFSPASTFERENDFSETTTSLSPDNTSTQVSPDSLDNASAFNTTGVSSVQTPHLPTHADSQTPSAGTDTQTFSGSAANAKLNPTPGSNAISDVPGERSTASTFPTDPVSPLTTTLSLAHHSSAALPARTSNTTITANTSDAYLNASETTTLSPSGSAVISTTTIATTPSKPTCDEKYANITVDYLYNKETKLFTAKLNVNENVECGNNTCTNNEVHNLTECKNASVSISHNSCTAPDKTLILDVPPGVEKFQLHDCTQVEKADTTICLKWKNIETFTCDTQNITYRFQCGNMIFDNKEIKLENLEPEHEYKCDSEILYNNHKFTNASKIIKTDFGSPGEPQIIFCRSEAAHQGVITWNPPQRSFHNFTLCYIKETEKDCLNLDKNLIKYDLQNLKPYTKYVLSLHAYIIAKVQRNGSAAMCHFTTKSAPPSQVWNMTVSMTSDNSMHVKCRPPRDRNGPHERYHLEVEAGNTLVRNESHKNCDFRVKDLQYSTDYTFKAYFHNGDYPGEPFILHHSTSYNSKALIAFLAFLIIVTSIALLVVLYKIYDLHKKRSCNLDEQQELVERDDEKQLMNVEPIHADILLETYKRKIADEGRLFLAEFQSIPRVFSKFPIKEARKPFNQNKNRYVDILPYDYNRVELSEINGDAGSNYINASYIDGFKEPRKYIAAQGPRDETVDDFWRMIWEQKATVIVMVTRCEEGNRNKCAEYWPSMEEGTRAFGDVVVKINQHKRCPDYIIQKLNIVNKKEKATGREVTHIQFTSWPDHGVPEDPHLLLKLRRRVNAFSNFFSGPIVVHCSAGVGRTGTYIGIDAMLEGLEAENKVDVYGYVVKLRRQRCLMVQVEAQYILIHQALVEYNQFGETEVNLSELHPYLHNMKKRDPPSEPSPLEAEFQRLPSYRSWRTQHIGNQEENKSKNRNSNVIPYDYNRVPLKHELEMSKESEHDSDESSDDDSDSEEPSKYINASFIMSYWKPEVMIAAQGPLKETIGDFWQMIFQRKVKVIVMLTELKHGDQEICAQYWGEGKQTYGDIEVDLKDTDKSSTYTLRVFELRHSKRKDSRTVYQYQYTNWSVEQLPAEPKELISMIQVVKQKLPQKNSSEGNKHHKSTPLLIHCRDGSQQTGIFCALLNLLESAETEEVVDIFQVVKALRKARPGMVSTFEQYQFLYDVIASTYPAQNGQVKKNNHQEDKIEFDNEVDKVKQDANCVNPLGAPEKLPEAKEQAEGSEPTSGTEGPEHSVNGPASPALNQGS

[3] = target: T1, CD45 domains 1-4 of the extracellular domain; experiment: mass of the peaks seen in the mixture of CD45 ECD and 4133-6294 BYbe in solution; theoretical mass 552 kDa
[4] = target: T2, human CD45 on cells (PBMC, whole blood …); experiment: cell-based or functional assay; remark: listed apart in the source
[5] = target: T2, human CD45 on cells (PBMC, whole blood …); experiment: cell-based or functional assay; remark: listed apart in the source
[6] = target: T2, human CD45 on cells (PBMC, whole blood …); experiment: cell-based or functional assay; remark: listed apart in the source
[7] = target: T1, CD45 domains 1-4 of the extracellular domain; experiment: sedimentation velocity analytical ultracentrifugation, molar 1:1 mixture of CD45 ECD and BYbe
[8] = target: T1, CD45 domains 1-4 of the extracellular domain; experiment: mass of the peaks seen in the mixture of CD45 ECD and 4133-6294 BYbe in solution; theoretical mass 276 kDa
[9] = target: T1, CD45 domains 1-4 of the extracellular domain; experiment: mass of the peaks seen in the mixture of CD45 ECD and 4133-6294 BYbe in solution; theoretical mass 414 kDa
[10] = target: T1, CD45 domains 1-4 of the extracellular domain; experiment: mass of the peaks seen in the mixture of CD45 ECD and 4133-6294 BYbe in solution; theoretical mass 138 kDa
[11] = target: T1, CD45 domains 1-4 of the extracellular domain; experiment: sedimentation peaks of the mixture of CD45 ECD and 4133-6294 BYbe; stoichiometry assigned from modelled S values

B1: 4133-6294 BYbe (bispecific antibody)
heavy: QEQLVESGGGLVQPEGSLTLTCTASGFSFSGNYYMCWVRQAPGKGLEWIGCLYTGSSGSTYYASWAKGRFTISKTSSTTVTLQMTSLTAADTATYFCARDLGYEIDGYGGLWGQGTLVTVSSGQPKAPSVFPLAPCCGDTPSSTVTLGCLVKGYLPEPVTVTWNSGTLTNGVRTFPSVRQSSGLYSLSSVVSVTSSSQPVTCNVAHPATNTKVDKTVAPSTCSKPGGGGSGGGGSEVQLVESGAELARPGASVKMSCKASGYTFTSYTMHWVKQRPGQCLEWIGYINPSSGYTEYNQKFKDKTTLTADKSSSTAYLQLSSLTSEDSAVYYCARVGDGFYPSWLAYWGQGTLVTVSSGGGGSGGGGSGGGGSGGGGSDIQMTQSPKFLLVSAGDRVTITCKASQSVRNDVAWYQQKPGQSPKLLIFYASKRYTGVPDRFTGSGYGTDFTFTISTVQAEDLAVYFCQQDYSSPTTFGCGTKLEIK
light: AQVLTQTPSPVSAVVGGTVSISCQASQSVYNNNNLSWYQQKPGQPPKLLIYDASKLASGVPSRFKGSGSGTQFTLTISGVQCDDAATYYCLGGYYSSGWYFAFGGGTKVVVKRTPVAPTVLIFPPAADQVATGTVTIVCVANKYFPDVTVTWEVDGTTQTTGIENSKTPQNSADCTYNLSSTLTLTSTQYNSHKEYTCKVTQGTTSVVQSFNRGDC
- counts in the peak at 75 kDa (arrow from the BYbe schematic; unbound BYbe according to the text) [1]: 3830 counts
- counts in the peak at 136 kDa, complex marked (1x) [1]: 3060 counts
- counts in the peak at 274 kDa, complex marked (2x) [1]: 3510 counts
- counts in the peak at 415 kDa, complex marked (3x) [1]: 464 counts
- counts in the peak at 555 kDa, complex marked (4x) [1]: 137 counts
- percent of counts in the peak at 75 kDa (arrow from the BYbe schematic; unbound BYbe according to the text) [1]: 31%
- percent of counts in the peak at 136 kDa, complex marked (1x) [1]: 24%
- percent of counts in the peak at 274 kDa, complex marked (2x) [1]: 28%
- percent of counts in the peak at 415 kDa, complex marked (3x) [1]: 4%
- percent of counts in the peak at 555 kDa, complex marked (4x) [1]: 1%
- EC50 of subset cell reduction, B cells in PBMC, 24 h [2]: 1500 pM
- EC50 of subset cell reduction, CD4+ Memory cells in PBMC, 24 h [2]: 222 pM
- EC50 of subset cell reduction, CD4+ Naive cells in PBMC, 24 h [2]: 524 pM
- EC50 of subset cell reduction, CD4+ cells in PBMC, 24 h [2]: 302 pM
- EC50 of subset cell reduction, CD8+ cells in PBMC, 24 h [2]: 187 pM
- observed mass of the complex 4× (CD45 + BYbe) [3]: 555 kDa
- EC50 of reduction of lymphocytes in PBMC, 24 h (UCB Cone-802) [4]: 150 pM
- EC50 of reduction of lymphocytes in PBMC, 24 h (UCB Cone-811) [4]: 100 pM
- EC50 of % cell reduction, CCRF-SB cells, 21 h [5]: 308 pM
- EC50 of % cell reduction, Dakiki cells, 21 h [5]: 309 pM
- EC50 of % cell reduction, Jurkat cells, 21 h [5]: 117 pM
- EC50 of % cell reduction, MC116 cells, 21 h [5]: 5 pM
- EC50 of % cell reduction, NU-DUL-1 cells, 21 h [5]: 497 pM
- EC50 of % cell reduction, OCI-Ly3 cells, 21 h [5]: 349 pM
- EC50 of % cell reduction, Raji cells, 21 h [5]: 397 pM
- EC50 of % cell reduction, Ramos cells, 21 h [5]: 140 pM
- EC50 of % cell reduction, SU-DHL-4 cells, 21 h [5]: 141 pM
- EC50 of % cell reduction, SU-DHL-5 cells, 21 h [5]: 43 pM
- EC50 of % cell reduction, SU-DHL-8 cells, 21 h [5]: 1460 pM
- EC50 of % cell reduction, THP-1 cells, 21 h [5]: 1540 pM
- EC50 of reduction, CD4+ cells in whole blood, 5 h, Donor 1 [6]: 250 pM
- EC50 of reduction, CD4+ cells in whole blood, 5 h, Donor 2 [6]: 330 pM
- EC50 of reduction, total lymphocytes in whole blood, 5 h, Donor 1 [6]: 370 pM
- EC50 of reduction, total lymphocytes in whole blood, 5 h, Donor 2 [6]: 5990 pM
- Percentage of area under the curve (CD45 1:1 BYbe complex) [7]: 12%
- Percentage of area under the curve (CD45 2:2 BYbe complex) [7]: 37.7%
- Percentage of area under the curve (CD45 3:3 BYbe complex) [7]: 35.7%
- Percentage of area under the curve (CD45 4:4 BYbe complex) [7]: 3.46%
- Percentage of area under the curve (unbound CD45 in the 1:1 mixture) [7]: 9.21%
- observed mass of the complex 2× (CD45 + BYbe) [8]: 274 kDa
- observed mass of the complex 3× (CD45 + BYbe) [9]: 415 kDa
- observed mass of the complex 1× (CD45 + BYbe) [10]: 136 kDa
- experimental S value of the complex CD45 1:1 BYbe [11]: 6.9 S
- experimental S value of the complex CD45 2:1 BYbe [11]: 7.15 S
- experimental S value of the complex CD45 2:2 BYbe [11]: 8.78 S
- experimental S value of the complex CD45 3:3 BYbe [11]: 10 S
- experimental S value of the complex CD45 4:3 BYbe [11]: 11.1 S
- experimental S value of the complex CD45 4:4 BYbe [11]: 13.3 S
